From publication PMC10873344

Experiments:
[1] = biological target: mouse SEL1L S658P/F668Y-FLAG (mouse); assay: co-IP; anti-FLAG agarose IP from lysates of SEL1L-/- HEK293T cells transfected with SEL1L-FLAG variants, blots for endogenous partners; 150 mM NaCl, 0.2% NP-40, 0.1% Triton X-100, 25 mM Tris-HCl pH 7.5, overnight at 4 C
[2] = biological target: SEL1L^S658P, endogenous mouse (homozygous KI liver) (mouse (endogenous in liver)); assay: co-IP; IP of endogenous SEL1L or HRD1 (home-made antibody, protein A agarose) from livers of 5-week-old WT, HET and KI mice; 150 mM NaCl, 1% NP-40, 25 mM Tris-HCl pH 7.5
[3] = biological target: HRD1 (HMG-CoA reductase degradation 1), endogenous human, Q86TM6-3; assay: co-immunoprecipitation (FLAG-agarose IP, Western blot quantitation); settings: SEL1L-/- HEK293T cells; n = 3; mean ± SEM; parent: est. 1.0; read off a plot
[4] = biological target: OS9 (Osteosarcoma amplified 9), endogenous human (UniProt Q13438); assay: as above; settings: SEL1L-/- HEK293T cells; n = 3; mean ± SEM; parent: est. 1.0; read off a plot
[5] = biological target: HRD1 (HMG-CoA reductase degradation 1), endogenous human, Q86TM6-3; assay: as above; settings: SEL1L-/- HEK293T cells; n = 3; mean ± SEM; parent: est. 1.0; read off a plot; remark: listed apart in the source
[6] = biological target: OS9 (Osteosarcoma amplified 9), endogenous human (UniProt Q13438); assay: as above; settings: SEL1L-/- HEK293T cells; n = 3; mean ± SEM; parent: est. 1.0; read off a plot; remark: listed apart in the source

UniProt Q13438, sequence (Q13438 26-667): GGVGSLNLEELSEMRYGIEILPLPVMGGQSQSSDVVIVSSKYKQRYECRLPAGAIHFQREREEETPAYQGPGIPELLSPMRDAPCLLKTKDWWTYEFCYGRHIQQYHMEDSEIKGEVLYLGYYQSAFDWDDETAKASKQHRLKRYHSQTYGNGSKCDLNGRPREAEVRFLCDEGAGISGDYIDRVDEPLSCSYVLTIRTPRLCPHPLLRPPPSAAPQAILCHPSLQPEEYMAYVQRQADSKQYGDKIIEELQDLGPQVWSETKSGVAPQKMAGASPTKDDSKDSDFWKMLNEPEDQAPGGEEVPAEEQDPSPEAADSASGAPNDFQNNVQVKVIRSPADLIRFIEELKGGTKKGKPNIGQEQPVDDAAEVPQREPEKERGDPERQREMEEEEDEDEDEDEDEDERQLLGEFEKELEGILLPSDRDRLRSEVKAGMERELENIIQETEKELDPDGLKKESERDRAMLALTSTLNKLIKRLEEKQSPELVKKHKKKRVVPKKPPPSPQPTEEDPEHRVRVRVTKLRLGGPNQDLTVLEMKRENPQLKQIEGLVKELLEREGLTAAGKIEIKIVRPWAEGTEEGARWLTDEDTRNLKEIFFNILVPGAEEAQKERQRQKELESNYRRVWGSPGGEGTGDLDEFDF
HRD1 (HMG-CoA reductase degradation 1), endogenous human, Q86TM6-3, sequence (Q86TM6 other isoform, or with tags, fused parts or gaps): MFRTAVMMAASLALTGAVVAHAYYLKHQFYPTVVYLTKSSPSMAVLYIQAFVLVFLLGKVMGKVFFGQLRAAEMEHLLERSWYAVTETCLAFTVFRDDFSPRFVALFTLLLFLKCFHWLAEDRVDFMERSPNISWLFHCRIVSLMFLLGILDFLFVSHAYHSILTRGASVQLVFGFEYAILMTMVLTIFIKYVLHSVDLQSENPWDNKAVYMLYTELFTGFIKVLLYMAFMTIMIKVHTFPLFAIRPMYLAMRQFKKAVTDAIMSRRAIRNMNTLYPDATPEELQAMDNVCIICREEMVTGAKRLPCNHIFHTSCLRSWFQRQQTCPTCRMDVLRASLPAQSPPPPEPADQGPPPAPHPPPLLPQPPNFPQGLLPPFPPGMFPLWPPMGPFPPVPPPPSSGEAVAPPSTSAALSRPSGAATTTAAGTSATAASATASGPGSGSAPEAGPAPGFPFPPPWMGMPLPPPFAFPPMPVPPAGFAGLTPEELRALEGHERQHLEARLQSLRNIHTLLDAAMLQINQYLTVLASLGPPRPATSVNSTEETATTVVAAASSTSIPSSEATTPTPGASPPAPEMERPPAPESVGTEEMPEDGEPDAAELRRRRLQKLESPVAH

Substance	response [3]	response [4]	response [6]	also measured
HRD1 (HMG-CoA reductase degradation 1), endogenous human (from UniProt Q86TM6-3 1-616) (enzyme)				fold increase against SEL1L S658P [1]: 2 fold
HRD1, endogenous mouse (liver) (from UniProt Q9DBY1 1-612) (enzyme)				fold reduction against WT and HET livers [2]: 5 fold
mouse SEL1L (WT)-FLAG (from UniProt Q9Z2G6-1) F668A	0.07 a.u.	1 a.u.		
mouse SEL1L (WT)-FLAG (from UniProt Q9Z2G6-1) F668Y			1 a.u.	response [5]: 0.9 a.u.
mouse SEL1L (WT)-FLAG (from UniProt Q9Z2G6-1) S658P	0.15 a.u.	1 a.u.	0.95 a.u.	response [5]: 0.17 a.u.
mouse SEL1L (WT)-FLAG (from UniProt Q9Z2G6-1) S658P; F668A	0.11 a.u.	0.97 a.u.		
mouse SEL1L (WT)-FLAG (from UniProt Q9Z2G6-1) S658P; F668Y			0.95 a.u.	
